From article PMC3742741 (PLoS ONE, 2013)
Square brackets hold non-standard residues; d marks the D form. SeMet = C[Se]CC[C@H](N)C(=O)O

What was measured:
P51572 = assay: native MS; native ESI MS, 150 mM NH4 acetate pH 7, 1.24 mg/mL further diluted in 15% acetonitrile and 5% 2-propanol, LTQ-Orbitrap Velos
[1] = biological target: the molecule itself; assay: SEC; calibrated gel filtration, Superdex 200, 10-400 µM protein, 20 mM Na-P pH 7.0, 150 mM NaCl, 0.1 mM TCEP; Stoke's radius compared with radii of gyration of dimer and tetramer
[2] = biological target: the molecule itself; assay: crystal structure; twinned P3_(2)21 form, selenomethionine labeled protein, crystal grown at 19 °C in 100 mM Na citrate pH 4.2, 33% PEG 400, 200 mM LiSO4
[3] = biological target: T1, His-tagged full-length C-terminal cytoplasmic domain of BAP29 (residues 125-237) (Homo sapiens (Human), UniProt Q9UHQ4); assay: IMAC pull-down
T1 chain: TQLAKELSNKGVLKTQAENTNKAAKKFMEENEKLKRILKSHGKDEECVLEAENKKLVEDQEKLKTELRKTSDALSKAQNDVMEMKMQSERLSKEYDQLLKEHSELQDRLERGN

[4] = biological target: the molecule itself; assay: CD thermal unfolding against protein concentration; midpoint of thermal unfolding at pH 6.0 with 0.25 µM to 5 µM protein
[5] = biological target: T2, His-tagged full-length C-terminal cytoplasmic domain of BAP31 (residues 124-242) (Homo sapiens (Human), UniProt P51572); assay: IMAC pull-down
T2 chain: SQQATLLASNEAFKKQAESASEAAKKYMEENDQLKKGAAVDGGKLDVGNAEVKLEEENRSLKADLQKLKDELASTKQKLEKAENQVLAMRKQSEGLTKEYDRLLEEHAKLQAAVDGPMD

[6] = biological target: T3, BAP31 full-length C-terminal cytoplasmic region (residues 124-242), untagged (Homo sapiens (Human), UniProt P51572); assay: analytical gel filtration
T3 chain: T2 chain

B1: BAP31 vDED (variant of death effector domain of human BAP31, residues 168-233), untagged (domain or fragment, UniProt P51572 168-233, looked up)
chain: LDVGNAEVKLEEENRSLKADLQKLKDELASTKQKLEKAENQVLAMRKQSEGLTKEYDRLLEEHAKL
notes: BAP31, human, UniProt P51572, vDED domain, residues 168-233; Vector pNIC28-Bsa4; also called vDED domain of BAP31; source: E. coli BL21(DE3) Rosetta 2, purified (IMAC, TEV cleavage, reverse IMAC, gel filtration); not shown: His6, N-terminal, cleaved
For B1, the “dimer peak height relative to the monomer peak” value (P51572) was ≥35% of the monomer peak height and the “stoichiometry N” value [1] was 2.

B2: Selenomethionine labeled BAP31 vDED (residues 168-233), untagged (domain or fragment, human, UniProt P51572 168-233, looked up)
chain: LDVGNAEVKLEEENRSLKADLQKLKDELASTKQKLEKAENQVLA[SeMet]RKQSEGLTKEYDRLLEEHAKL
notes: BAP31, human, UniProt P51572, vDED domain, residues 168-233; Same construct as m1, with selenomethionine; used for the P3_(2)21 crystal form at pH 4.2 (residues 169-220 modeled); also called BAP31 vDED acidic pH (P3_(2)21 form); source: E. coli BL21(DE3) Rosetta 2 grown in minimal medium, purified as the native protein with 2 mM TCEP; not shown: His6, N-terminal, cleaved
B2: binds [2].

B3: BAP31 full-length C-terminal cytoplasmic region (residues 124-242), untagged (domain or fragment, human, UniProt P51572 124-242, looked up)
chain: T2 chain
notes: BAP31, human, UniProt P51572, C-terminal cytoplasmic region, residues 124-242; also called BAP31 Cyt; BAP31 full-length cytoplasmic; source: E. coli BL21(DE3) Rosetta 2, purified (IMAC, TEV cleavage, reverse IMAC, gel filtration); not shown: His6, N-terminal, cleaved
B3: no binding [3]; binds [4].

B4: BAP29 full-length C-terminal cytoplasmic region (residues 125-237), untagged (protein)
chain: T1 chain
B4: no binding [5]; no binding [6].
